Assay results published in CN116284426A (SUNSHINE GUOJIAN PHARMACEUTICAL SHANGHAI CO LTD, dated 2023).
Each block holds one binder with its values, some of them ahead of it.

How the values were obtained:
[1] = target: T1, GUCY2C-Fc蛋白 (human GUCY2C extracellular region fused to human IgG1 Fc) (human, UniProt P25092 24-430); experiment: indirect ELISA, GUCY2C-Fc coated at 1 ug/mL, anti-mouse HRP
T1 construct: extracellular domain; Made in HEK-293F with an unspecified N-terminal signal peptide; also called 人GUCY2C-Fc蛋白; not shown: human IgG1 Fc at the C-terminus in place of the 6xHis tag

[2] = target: T2, GUCY2C on tumour cells (CW2, CW2-GCC#1, T84) (human, UniProt P25092 24-1073); experiment: flow cytometry on CW2 human colon cancer cells, anti-mouse PE
T2 construct: whole, on cells; Only CW2-GCC#1 is expressly said to express GUCY2C; also called 鸟苷酸环化酶2C; 人结肠癌细胞CW2

[3] = target: T3, GUCY2C-His蛋白 (human GUCY2C extracellular region with C-terminal 6xHis) (human, UniProt P25092 24-430); experiment: ELISA, GUCY2C-His coated at 0.1 ug/mL, anti-mouse HRP (Table 4)
T3 construct: extracellular domain; Made in HEK-293F with an unspecified N-terminal signal peptide; also called 人GUCY2C-His蛋白

[4] = target: T3, GUCY2C-His蛋白 (human GUCY2C …); experiment: ELISA, GUCY2C-His coated at 0.1 ug/mL, anti-mouse HRP (Table 3)
[5] = target: T2, GUCY2C on tumour cells (CW2, CW2-GCC#1, …); experiment: flow cytometry on CW2-GCC#1 cells (GUCY2C-overexpressing CW2)
[6] = target: T1, GUCY2C-Fc蛋白 (human GUCY2C extracellular …); experiment: ELISA, GUCY2C-Fc coated, anti-human IgG Fab HRP
[7] = target: T3, GUCY2C-His蛋白 (human GUCY2C …); experiment: ELISA, GUCY2C-His coated, anti-human IgG Fc HRP
[8] = target: T1, GUCY2C-Fc蛋白 (human GUCY2C extracellular …); experiment: ELISA, GUCY2C-Fc coated, anti-human IgG Fab HRP (Table 11)
[9] = target: T1, GUCY2C-Fc蛋白 (human GUCY2C extracellular …); experiment: ELISA, GUCY2C-Fc coated, anti-human IgG Fab HRP (Table 18)
[10] = target: T3, GUCY2C-His蛋白 (human GUCY2C …); experiment: ELISA, GUCY2C-His coated, anti-human IgG Fab HRP (Table 9)
[11] = target: T3, GUCY2C-His蛋白 (human GUCY2C …); experiment: ELISA, GUCY2C-His coated, anti-human IgG Fab HRP (Table 17)

T3 sequence (P25092 other isoform, or with tags, fused parts or gaps): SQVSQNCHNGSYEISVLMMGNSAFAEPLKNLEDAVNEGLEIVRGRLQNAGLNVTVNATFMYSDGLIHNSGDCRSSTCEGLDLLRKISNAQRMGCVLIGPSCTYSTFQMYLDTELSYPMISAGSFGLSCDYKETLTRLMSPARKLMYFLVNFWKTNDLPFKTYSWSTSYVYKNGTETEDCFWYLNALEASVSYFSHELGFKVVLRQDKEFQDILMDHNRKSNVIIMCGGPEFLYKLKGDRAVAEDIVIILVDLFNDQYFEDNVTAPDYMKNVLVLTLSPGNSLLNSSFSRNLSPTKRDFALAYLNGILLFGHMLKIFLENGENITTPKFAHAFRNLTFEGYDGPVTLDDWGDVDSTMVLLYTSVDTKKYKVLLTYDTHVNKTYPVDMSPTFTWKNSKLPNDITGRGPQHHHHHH
T2 sequence (P25092 24-1073): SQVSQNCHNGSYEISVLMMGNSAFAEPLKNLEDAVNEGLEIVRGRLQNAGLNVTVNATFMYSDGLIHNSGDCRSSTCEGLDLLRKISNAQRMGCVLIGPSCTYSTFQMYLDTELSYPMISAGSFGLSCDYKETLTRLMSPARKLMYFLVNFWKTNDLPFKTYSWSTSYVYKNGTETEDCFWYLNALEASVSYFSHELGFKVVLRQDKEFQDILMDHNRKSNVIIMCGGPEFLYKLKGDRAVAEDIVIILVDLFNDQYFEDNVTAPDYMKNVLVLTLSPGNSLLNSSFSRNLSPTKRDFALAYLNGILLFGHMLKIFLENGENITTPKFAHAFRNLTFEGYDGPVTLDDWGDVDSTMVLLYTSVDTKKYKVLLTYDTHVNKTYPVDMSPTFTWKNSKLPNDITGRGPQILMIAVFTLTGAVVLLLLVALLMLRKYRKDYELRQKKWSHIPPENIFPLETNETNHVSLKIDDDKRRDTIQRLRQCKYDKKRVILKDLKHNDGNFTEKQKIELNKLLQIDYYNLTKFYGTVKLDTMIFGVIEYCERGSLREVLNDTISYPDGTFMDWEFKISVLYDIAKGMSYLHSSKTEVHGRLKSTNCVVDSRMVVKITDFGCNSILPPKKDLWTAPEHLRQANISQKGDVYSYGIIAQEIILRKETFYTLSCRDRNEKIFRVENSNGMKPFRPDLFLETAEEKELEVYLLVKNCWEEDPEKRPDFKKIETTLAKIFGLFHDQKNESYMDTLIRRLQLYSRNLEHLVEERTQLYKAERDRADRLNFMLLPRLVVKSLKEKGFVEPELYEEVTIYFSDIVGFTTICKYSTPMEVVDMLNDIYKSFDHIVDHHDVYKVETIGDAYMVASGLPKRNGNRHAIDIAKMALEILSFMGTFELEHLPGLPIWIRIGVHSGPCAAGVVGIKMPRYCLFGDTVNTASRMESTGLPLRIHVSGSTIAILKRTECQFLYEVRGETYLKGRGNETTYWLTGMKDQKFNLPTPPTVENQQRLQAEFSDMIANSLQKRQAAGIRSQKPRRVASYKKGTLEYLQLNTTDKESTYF
T1 sequence (P25092 24-430 limits assumed): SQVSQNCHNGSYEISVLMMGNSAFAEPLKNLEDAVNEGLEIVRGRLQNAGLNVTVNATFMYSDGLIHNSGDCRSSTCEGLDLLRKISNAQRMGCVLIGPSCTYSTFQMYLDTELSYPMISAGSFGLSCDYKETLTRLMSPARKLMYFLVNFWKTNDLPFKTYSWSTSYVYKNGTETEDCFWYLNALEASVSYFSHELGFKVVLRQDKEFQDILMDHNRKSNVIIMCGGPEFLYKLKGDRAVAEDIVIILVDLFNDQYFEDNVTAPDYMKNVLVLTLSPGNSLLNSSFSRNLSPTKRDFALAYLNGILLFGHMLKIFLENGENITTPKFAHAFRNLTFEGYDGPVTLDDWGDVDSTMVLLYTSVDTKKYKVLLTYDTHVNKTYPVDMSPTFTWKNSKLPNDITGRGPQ

- EC50 [1]: 0.00709 µg/mL
- EC50 [2]: 9.6 µg/mL
- EC50 [3]: 260 pM
B1: 32H2G1A1 (antibody, V domains shown)
VH: EVMLVESGGDLVKPGGSLKLSCAASGFSFRTYAMSWVRQSPEKSLEWVATISSGSSYIYYPDSVKGRFTVFRDNAKNTLYLQMSSLRSEDSAIYYCTCYRMETFEYWGQGTTLTVSS
VL: DVVMTQTPLSLPVSLGDEASISCRSSQSLVYNNGNTYLHWYLQKPGQSPKLLIYKVSNRFSGVPDRFSGSGSGTDFTLKISRVEAEDLGVYFCSQSTHVPLTFGAGTKLELK

- EC50 [1]: 0.018 µg/mL
- EC50 [2]: 0.365 µg/mL
- EC50 [4]: 990 pM
B2: 43D11B1D2 (antibody, V domains shown)
VH: DVKLVESGGVLVKLGGSLKLSCAASGFTFSGYFMSWVRQTPEKRLELVAAINSDGGSTYYPDTVKGRFTISRDNAKNTLYLQMSSLKSEDTALYYCARLARYLYAMDYWGQGTSVTVSS
VL: QIVLTQSPAIMSASPGEKVTMTCSASSSVSYMYWYQQKPGSSPRLLIYDTSNLASGVPVRFSGSGSGTSYSLTISRMEAEDAATYYCQQWTSSSWTFGGGTKLEIK

- EC50 [5]: 96300 pM
- EC50 [6]: 452 pM
- EC50 [7]: 468 pM
- EC50 [8]: 230 pM
- EC50 [9]: 759 pM
- EC50 [10]: 240 pM
- EC50 [11]: 244 pM
B3: 32H2-Hu (antibody, V domains shown)
VH: EVQLVESGGGLVKPGGSLRLSCAASGFSFRTYAMSWVRQAPGKSLEWVATISSGSSYIYYPDSVKGRFTVSRDNAKNSLYLQMNSLRAEDTAVYYCTCYRMETFEYWGQGTLVTVSS
VL: DVVMTQSPLSLPVTLGQPASISCRSSQSLVYNNGNTYLHWYQQRPGQSPRLLIYKVSNRFSGVPDRFSGSGSGTDFTLKISRVEAEDVGVYFCSQSTHVPLTFGQGTKVEIKR

- EC50 [1]: 0.0307 µg/mL
- EC50 [2]: 0.137 µg/mL
- EC50 [3]: 800 pM
B4: 10D7A7 (antibody, V domains shown)
VH: QVQLKQSGPGLVQPSQSLSITCTVSGFSLTNYGVHWVRQSPGKGLEWLGVIWSGGRKDYNAAFISRLNITKDNSKSQVFFTMNSLHSDDTAIYYCARHGTYPYWYFALWGAGTSVTISS
VL: DIQMTQTTSSLSASLGDRVTISCRASQDISNYLNWYQQKPDGTFKLLVYYTSRLQSGVPSRFSGSGSGTLYSLTISTLEQEDVATYFCQQGKTLPFSFGGGTRLEIK
